These results are taken from PMC4980432, “Structure of a Complete ATP Synthase Dimer Reveals the Molecular Basis of Inner Mitochondrial Membrane Morphology” (Molecular Cell, 2016).

Series [1] addresses T1, Y. lipolytica F1Fo-ATP synthase subunit α (Yarrowia lipolytica, UniProt Q6C326 25-536).
T1 construct: subunit α of the mitochondrial F1Fo-ATP synthase, Yarrowia lipolytica; three copies in each F1 head, in the states αE, αTP and αDP; also called αE; αTP; source: endogenous, purified from Y. lipolytica mitochondria as part of 2YLF1Fo, 1YLF1Fo and the YLF1c10 subcomplex
As to the kind of experiment: crystal structure; YLF1c10 subcomplex crystallised from the 1YLF1Fo complex without added nucleotides or inhibitors; 3.5 Å; molecular replacement with a model based on S. cerevisiae F1c10. As to conditions: both partners purified.

The target in series [2] is T1, Y. lipolytica F1Fo-ATP synthase subunit …. As to the kind of experiment: cryo-EM structure; single-particle cryo-EM of the purified dimer 2YLF1Fo; C2 symmetry imposed; 7.8 Å overall, 6.9 Å for F1 and 6.2 Å for the Fo dimer after masking; fitted with the YLF1c10 X-ray structure and homology models of the peripheral stalk. To be noted: both partners purified.
For series [3], the target named is T2, e/g heterodimer of the Y. lipolytica F1Fo-ATP synthase (subunits e and g) (Yarrowia lipolytica, UniProt B5FVG3 1-90; B5FVB8 1-138).
T2 construct: subunit e of the mitochondrial F1Fo-ATP synthase, Yarrowia lipolytica; predicted N-terminal trans-membrane helix with a GxxxG motif and a hydrophilic C terminus; subunit g of the mitochondrial F1Fo-ATP synthase, Yarrowia lipolytica; N-terminal matrix domain and predicted C-terminal trans-membrane helix with a GxxxG motif; the two subunits are not resolved from each other in the 6.2 Å map; also …
T2 sequence (looked up) 1: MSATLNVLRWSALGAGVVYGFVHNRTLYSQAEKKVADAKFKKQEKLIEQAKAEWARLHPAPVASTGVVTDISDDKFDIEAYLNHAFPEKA
T2 sequence (looked up) 2: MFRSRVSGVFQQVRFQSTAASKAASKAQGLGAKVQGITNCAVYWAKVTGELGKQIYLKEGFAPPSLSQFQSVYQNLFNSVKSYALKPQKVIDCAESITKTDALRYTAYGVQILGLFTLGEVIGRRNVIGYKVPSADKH
Described as above. To be noted: both partners purified.

Series [4] deals with the molecule itself. The series is described as above.
Series [5] deals with T3, Y. lipolytica F1Fo-ATP synthase subunit a (Yarrowia lipolytica, UniProt Q36258 7-255).
T3 construct: subunit a of the mitochondrial F1Fo-ATP synthase, Yarrowia lipolytica; mitochondrially encoded; helices aH1 to aH6; source: endogenous, purified from Y. lipolytica mitochondria as part of 2YLF1Fo
T3 sequence (looked up): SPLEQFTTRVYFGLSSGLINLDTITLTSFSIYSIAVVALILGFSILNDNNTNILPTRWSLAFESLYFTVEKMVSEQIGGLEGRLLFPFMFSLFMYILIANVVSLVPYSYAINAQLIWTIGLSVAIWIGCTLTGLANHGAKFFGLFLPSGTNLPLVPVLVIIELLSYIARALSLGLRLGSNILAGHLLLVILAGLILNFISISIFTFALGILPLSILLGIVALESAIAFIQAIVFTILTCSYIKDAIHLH
The series is described as above. To be noted: both partners purified.

Series [6] concerns the molecule itself. As to the kind of experiment: crystal structure; YLF1c10 subcomplex crystallised from the 1YLF1Fo complex without added nucleotides or inhibitors; 3.5 Å; molecular replacement with a model based on S. cerevisiae F1c10.

By stoichiometry N is commonly meant a count of units in the complex or per binding partner.

T1 sequence (Q6C326 25-536): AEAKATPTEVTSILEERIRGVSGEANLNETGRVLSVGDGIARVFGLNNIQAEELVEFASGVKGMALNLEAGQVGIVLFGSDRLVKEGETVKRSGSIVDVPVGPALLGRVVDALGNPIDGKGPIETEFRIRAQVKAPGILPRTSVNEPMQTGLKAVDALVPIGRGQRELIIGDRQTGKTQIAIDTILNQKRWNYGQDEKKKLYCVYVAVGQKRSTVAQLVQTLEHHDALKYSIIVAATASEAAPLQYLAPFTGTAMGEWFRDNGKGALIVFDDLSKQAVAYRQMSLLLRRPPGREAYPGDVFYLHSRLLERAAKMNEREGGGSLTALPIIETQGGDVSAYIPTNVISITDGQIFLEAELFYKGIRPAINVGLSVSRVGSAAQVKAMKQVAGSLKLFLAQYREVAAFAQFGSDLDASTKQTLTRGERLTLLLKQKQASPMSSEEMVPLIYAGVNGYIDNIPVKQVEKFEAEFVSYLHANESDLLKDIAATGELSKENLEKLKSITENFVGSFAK

B1: Y. lipolytica F1Fo-ATP synthase subunit γ (natural protein, Yarrowia lipolytica, UniProt Q6C338 22-293, looked up)
chain: ATLREIEMRLKSIKNIEKITNTMKIVASTKLGKAQRAMATSKVYNEASEKVFENSETAVPENIEKRLWVVVSSDKGLCGSIHSQLARTVRRKLLDFESGEKLIDIVAVGEKIKAQLGRSNPEQMRLSFGGTGKEAPTFEEAAHIADEILALDTQYDDIEIVYNKVLSGISFEPIMKESYSAKAIEDAPKFGQYELEDDVVKNLADFSLANTIYAAMAEGHAAEISARRNAMDNASKNASDMINKYSILYNRTRQAVITNELVDIITGASSLE
notes: subunit γ of the mitochondrial F1Fo-ATP synthase, Yarrowia lipolytica; also called central γ subunit; source: endogenous, purified from Y. lipolytica mitochondria as part of the YLF1c10 subcomplex (from 1YLF1Fo)
As to B1, the binding result in series [1] is “binds”.

B2: Y. lipolytica F1Fo-ATP synthase subunit OSCP (natural protein, Yarrowia lipolytica, UniProt Q6C9B1 25-214, looked up)
chain: APVKVPVQLFGLDGTYATALYTAAAKESDLSKTEGSLAKLRDVFAQQPEVAQIVSNPTLSHEDKQTVVNVLSQAVGGDKTLTNFLTVISDNNRLALIPGIIEKFETLVNASKGLVEATVTSASELDKKTVNRIQAAIAGSSFVGEGELKLNLKVNPDILGGLIVEVAERTVDVSVASKIARLNHVLSEPI
notes: peripheral stalk subunit OSCP of the mitochondrial F1Fo-ATP synthase, Yarrowia lipolytica; source: endogenous, purified from Y. lipolytica mitochondria as part of 2YLF1Fo
For the molecule B2, in series [2], the binding result was “binds”.

B3: Y. lipolytica F1Fo-ATP synthase subunit d (natural protein, Yarrowia lipolytica, UniProt Q6CFH9 1-176, looked up)
chain: MSVAAARSSAVKVDWGKIVSSLGLTGATVSSLQAFRKRHEEAKKNAYELQNQPTTVDFAHYRKVLKNQKVVDEIEQHFKSFKPVTYDVSKQLKTIDAFEAKAIEDAKATEGKVNQEIGDLQKTLENIESARPFDQLSVDDVFKARPDLEKKIEEMVKKGRWSVPGYNEKFGSVVLM
notes: peripheral stalk subunit d of the mitochondrial F1Fo-ATP synthase, Yarrowia lipolytica; also called d subunit; source: endogenous, purified from Y. lipolytica mitochondria as part of 2YLF1Fo
On to B3, for which the binding result in series [2] is given as “binds”.

B4: Y. lipolytica F1Fo-ATP synthase subunit h (natural protein, Yarrowia lipolytica, UniProt Q6C2V6 20-108, looked up)
chain: NLISEAYTREVRAFKAPKLSAKDAEGQVKPWSAPSAPKPPVVEGADAAELQAYAEAPVDVEGQTNSKSASPQANDEDWLAFEEEEGVAV
notes: peripheral stalk subunit h of the mitochondrial F1Fo-ATP synthase, Yarrowia lipolytica; also called equivalent of bovine F6; source: endogenous, purified from Y. lipolytica mitochondria as part of 2YLF1Fo
Take B4: the binding result in series [2] is on record as “binds”.

B5: Y. lipolytica F1Fo-ATP synthase subunit b (natural protein, Yarrowia lipolytica, UniProt Q6C105 15-217, looked up)
chain: SNQVDPKVKATSILDSIPGNNVLSKTGVLATGVLGSIYAISNELYIVNDESIVLGVFAAFVVVVAKLGGPGYTSWADGYIENMRNILNTTRDKHTDAVKERIGDVSKLKDVVKTTQDLFAVSKDTVKLEAEVFETKQQVVLAAEAKSVLDSWVRYENSVRQREQKLLTETVISKIEKDLKDPKFQQKILQQSVEDIEKLFAKA
notes: subunit b of the mitochondrial F1Fo-ATP synthase, Yarrowia lipolytica; two trans-membrane helices at its N terminus; also called peripheral stalk subunit b; source: endogenous, purified from Y. lipolytica mitochondria as part of 2YLF1Fo
Consider B5, for which the binding result in series [3] and in series [2] was “binds” in each case.

B6: Y. lipolytica F1Fo-ATP synthase subunit f (natural protein, Yarrowia lipolytica, UniProt Q6C9E6 7-103, looked up)
chain: LSTLIPPKVASPATLHGAPNAKRMADVVSFYKALPQGAAPALPKTANPFKLYYRKYFHPKSGKASGAPLLHLILGIFLFGYISDYQFHLKHHKNGAH
notes: subunit f of the mitochondrial F1Fo-ATP synthase, Yarrowia lipolytica; nuclear-encoded; in yeast a 100-residue subunit with a hydrophilic N-terminal domain and a predicted C-terminal trans-membrane helix; source: endogenous, purified from Y. lipolytica mitochondria as part of 2YLF1Fo
With B6, the binding result in series [4] is listed as “binds”.

B7: Y. lipolytica F1Fo-ATP synthase subunit 8 (natural protein, Yarrowia lipolytica, UniProt Q36257 1-48, looked up)
chain: MPQLVPFYFTNQIFYGFASLSVIVYLFSIYILPHYLEIYVTRIFITKT
notes: subunit 8 of the mitochondrial F1Fo-ATP synthase, Yarrowia lipolytica; 48 residues; N-terminal MPQL motif, trans-membrane helix ended by Pro33; mitochondrially encoded; also called A6L in human; source: endogenous, purified from Y. lipolytica mitochondria as part of 2YLF1Fo
Turning to B7, the binding result in series [5] was “binds”.

B8: Y. lipolytica F1Fo-ATP synthase subunit c (natural protein, Yarrowia lipolytica, UniProt Q37695 1-76, looked up)
chain: MQLVLAGKYIGAGLASIGLVGAGIGIAIVFAALINGVSRNPALKGQLFTYSILGFALSEATGLFALMIAFLLLYAV
notes: subunit c (subunit 9) of the mitochondrial F1Fo-ATP synthase, Yarrowia lipolytica; mitochondrially encoded; ten copies form the rotor ring; also called c subunit; c-ring; source: endogenous, purified from Y. lipolytica mitochondria as part of 2YLF1Fo and the YLF1c10 subcomplex
B8: the binding result in series [5] is given as “binds”. The “stoichiometry N” value in series [6] came to 10.
